The values that follow come from US5637682, “High-affinity oligonucleotide ligands to the tachykinin substance P” (NeXstar Pharmaceuticals, Inc.).

The target of data set [1] is T1, Substance P (SP) (UniProt P20366).
T1 sequence: RPKPQQFFGLM
To be noted: equilibrium dialysis rough estimate, 20 uM RNA, fraction bound 0.017.

Data set [2] has as its target T2, Substance P (SP) (UniProt P20366).
T2 chain: RPKPQQFFGLM
Put plainly: single-point equilibrium dialysis; stated for all class 2. As to conditions: protein: synthetic; tags: free synthetic peptide, C-terminal amide, Sigma (3H-SP from NEN as tracer). Here is the method: (§1) Binding reactions consisted of 20 nM ^3H-SP (P_o) and either 0.2 µM RNA (a) or 1.0 µM RNA (b). ND=not determined.
(§2) Equilibrium dialysis. Equilibrium dialysis experiments were performed with a Spectra/Por® (Spectrum; Houston, Tex.) equilibrium dialyzer, Spectra/Por® (Spectrum; Houston, Tex.) microcell dialysis chambers (200-μl chamber volumes), and 12000–14000 MWCO dialysis membranes (Spectrum; Houston, Tex.). These membranes allow passage of SP but not 107-nt RNAs. Sample volumes were 200 μl on each side of the membrane (i.e., 200 μl per chamber). All experiments were at room temperature in 1X SP binding buffer. RNAs (unlabeled) were denatured prior to re-equilibration in binding buffer as described above for Experiment B. For binding curves (FIG. 4), RNA concentrations between 50 nM and 20 μM were utilized. […] For binding competition experiments (FIGS. 6 and 7), equal concentrations of the competing peptide were applied to each side of the membrane at the start of dialysis. The dialysis cells were rotated at 10 rpm to shorten the time required to reach equilibrium. […] Following equilibration, samples were withdrawn from the dialysis chambers, added to scintillation fluid, and counted.
On the technique in general: Equilibrium dialysis compares concentrations on both sides of a semipermeable membrane.

Data set [3] has as its target T2, Substance P (SP). Description: single-point equilibrium dialysis. To be noted: protein: synthetic; tags: free synthetic peptide, C-terminal amide, Sigma (3H-SP from NEN as tracer). Here is the method: as §1, §2
Data set [4] concerns the target T3, Reverse-orientation substance P (rSP).
T3 chain: CMLGFFQQPKPR
Put plainly: competition; poor competitor of 3H-SP up to 100 uM; 1.6 uM RNA, 1.6 uM SP. To be noted: protein: synthetic; tags: synthetic peptide. Here is the method:
as §2, with “These” for “Equilibrium dialysis. Equilibrium dialysis experiments were performed with a Spectra/Por® (Spectrum; Houston, Tex.) equilibrium dialyzer, Spectra/Por® (Spectrum; Houston, Tex.) microcell dialysis chambers (200-μl chamber volumes), and 12000–14000 MWCO dialysis membranes (Spectrum; Houston, Tex.). These”

Data set [5] has as its target T2, Substance P (SP). Put plainly: equilibrium dialysis, five-point curve; single-point screen gave 170 nM; 10 mM HEPES pH 7.0, 150 mM NaCl, 5 mM KCl, 5 mM CaCl2, room temp. As to conditions: protein: synthetic; tags: free synthetic peptide, C-terminal amide, Sigma (3H-SP from NEN as tracer). Here is the method:
as §2

Data set [6] deals with T4, Substance P fragment 2-11.
T4 chain: PKPQQFFGLM
Description: competition; unable to compete at 32 uM (20-fold excess over SP). As to conditions: protein: synthetic; tags: synthetic peptide, Sigma. Here is the method:
as §2

The target of data set [7] is T2, Substance P (SP). Description: single-point equilibrium dialysis; exception to the >2 uM statement, exact value only in figure. As to conditions: protein: synthetic; tags: free synthetic peptide, C-terminal amide, Sigma (3H-SP from NEN as tracer). Here is the method: as §1, §2
Data set [8] addresses T2, Substance P (SP). Description: equilibrium dialysis, five-point curve; earlier estimate 14 uM; SP binding buffer, room temp. As to conditions: protein: synthetic; tags: free synthetic peptide, C-terminal amide, Sigma (3H-SP from NEN as tracer). Here is the method:
as §2

Like-named read-outs stand apart in the source and are kept apart here.

Turning to “GGGAGCUCAGAAUAAACGCUCAANNNNNNNNNNNNNNNNNNNNNNNNNNNNNNNNNNNNNNNNNNNNNNNNNNNNNNNNNNNNUUCGACAUGAGGCCCGGAUCCGGC [Unselected random 60N RNA pool]”, in the data set with Substance P (SP) [1], the Kd – broadly, the equilibrium constant for the complex coming apart – was 1200 µM.

B1: Experiment B class 2 ligand (SEQ 48) (ssRNA)
RNA: GGGAGCUCAGAAUAAACGCUCAAAAAACAGGACACCAUGAUAAAUGGACGAGUUCACUGGAGCGUCUAAAAGGGCACCCUUGGAUUCGACAUGAGGCCCGGAUCCGGC
On to B1, for which, in the data set with Substance P (SP) [2], the Kd is > 2 µM.

B2: Experiment B class 2 ligand (SEQ 52) (ssRNA)
RNA: GGGAGCUCAGAAUAAACGCUCAAAAACAGGACACCAAUUUUAUUGGACGAGUUUACUAGGGCGGUAUUAUGGGCUCGCGAGGAUUCGACAUGAGGCCCGGAUCCGGC
As to B2, the Kd with Substance P (SP) [2] was > 2 µM.

B3: Ligand B22 (class 3) (ssRNA)
RNA: GGGAGCUCAGAAUAAACGCUCAAAAGGUAAGAAACAGGACACGCACUUAAACAGACGAGUUAACCAUACCUAGAUCGCGGAAUUCGACAUGAGGCCCGGAUCCGGC
B3: the Kd in the data set with Substance P (SP) [3] was > 2 µM.

B4: Ligand B28 (ssRNA)
RNA: GGGAGCUCAGAAUAAACGCUCAACUUCCAAGGCAGUGGAAACCCUAAGGUCAAUAAUGACCAAUGACGCCGCUCCGGUUCAACCUUCGACAUGAGGCCCGGAUCCGGC
On to B4, for which the binding result in data set [4] and in data set [6] was “no binding” each time. The same molecule yielded a Kd in the data set with Substance P (SP) [5] of 0.19 µM.

B5: Experiment B class 2 ligand (SEQ 49) (ssRNA)
RNA: GGGAGCUCAGAAUAAACGCUCAAUAACAGGACACCAUGAUUAAUGGACGAGUUCACUAGGGCGGUUAAAAGAGCUCUCGAGGAUUCGACAUGAGGCCCGGAUCCGGC
For the molecule B5, the Kd with Substance P (SP) [2] is > 2 µM.

B6: Experiment B class 2 ligand (SEQ 54) (ssRNA)
RNA: GGGAGCUCAGAAUAAACGCUCAAAAACAGGACACCAAGAUUAUUGGACGAGUUUACUAGGGCGAUUAAUGGGCUCGCGAUGAUUCGACAUGAGGCCCGGAUCCGGC
As for B6, the Kd with Substance P (SP) [2] was > 2 µM.

B7: Ligand B32 (class 3) (ssRNA)
RNA: GGGAGCUCAGAAUAAACGCUCAAAAAGGCACUGACCACCCUCAGGAAGAAUAACCGCGGUCACCCGCAUCCGAGUCUAUCAAUUUCGACAUGAGGCCCGGAUCCGGC
For the molecule B7, the Kd with Substance P (SP) [7] is < 2 µM.

B8: Ligand B23 (class 3) (ssRNA)
RNA: GGGAGCUCAGAAUAAACGCUCAAGCUCAAGGCAGAAACAGGACACACCAAGACGAGUUAACCAGCCCAGCUUGACCAUACAUUCGACAUGAGGCCCGGAUCCGGC
In the case of B8, the Kd with Substance P (SP) [3] is > 2 µM.

B9: Experiment B class 2 ligand (SEQ 53) (ssRNA)
RNA: GGGAGCUCAGAAUAAACGCUCAAAAACAGGACACCAUGAAAAUGGACGAGUUCACUAGAGCGUUGAGCUGUGCGCCCGUGGAUUCGACAUGAGGCCCGGAUCCGGC
Turning to B9, in the data set with Substance P (SP) [2], the Kd is > 2 µM.

B10: Ligand A13 (ssRNA)
RNA: GGGAGCUCAGAAUAAACGCUCAAGGGCAACGCGGGCACCCCGACAGGUGCAAAAACGCACCGACGCCCGGCCGAAGAAGGGGAUUCGACAUGAGGCCCGGAUCCGGC
On to B10, for which the Kd in the data set with Substance P (SP) [8] was 5.8 µM.

B11: Experiment B class 2 ligand (SEQ 50) (ssRNA)
RNA: GGGAGCUCAGAAUAAACGCUCAAGAACAGGACACCAAGAUAAUUGGACGAGUUUACUAGGGCGGCUAUGCUGGCUCUCGAGGAUUCGACAUGAGGCCCGGAUCCGGC
On to B11, for which, in the data set with Substance P (SP) [2], the Kd is > 2 µM.

B12: Experiment B class 2 ligand (SEQ 51) (ssRNA)
RNA: GGGAGCUCAGAAUAAACGCUCAAGAACAGGACACCUGGUUCUCAGGACGAGUUUACUAGGGCGGCAAAAAGGGCUCUCGUGGGUUCGACAUGAGGCCCGGAUCCGGC
Consider B12, for which the Kd with Substance P (SP) [2] was > 2 µM.

B13: Experiment B class 2 ligand (SEQ 55) (ssRNA)
RNA: GGGAGCUCAGAAUAAACGCUCAAAACAGGACACCUUGAAUAAAGGACGAGUUUACUGUGCGUUUAGUAGAGAACCCGGGAUUCGACAUGAGGCCCGGAUCCGGC
As to B13, in the data set with Substance P (SP) [2], the Kd was > 2 µM.
